Publication PMC3072150 (Biochemistry, 2009)

What was measured:
[1] = molecular target: DnaC protein (hexamer assembled on DnaB) in the binary DnaB–DnaC complex (Escherichia coli, UniProt P0AEF0); experiment: fluorescence titration; type: binding
[2] = molecular target: DnaB helicase;DnaC protein (Escherichia coli;Escherichia coli, UniProt P0ACB0;P0AEF0 1-471;1-245, |); experiment: fluorescence titration and sedimentation velocity of cofactor
DnaB helicase = DnaB helicase (Escherichia coli, UniProt P0ACB0 1-471); experiment: fluorescence titration
Chain of DnaB helicase (P0ACB0 whole entry): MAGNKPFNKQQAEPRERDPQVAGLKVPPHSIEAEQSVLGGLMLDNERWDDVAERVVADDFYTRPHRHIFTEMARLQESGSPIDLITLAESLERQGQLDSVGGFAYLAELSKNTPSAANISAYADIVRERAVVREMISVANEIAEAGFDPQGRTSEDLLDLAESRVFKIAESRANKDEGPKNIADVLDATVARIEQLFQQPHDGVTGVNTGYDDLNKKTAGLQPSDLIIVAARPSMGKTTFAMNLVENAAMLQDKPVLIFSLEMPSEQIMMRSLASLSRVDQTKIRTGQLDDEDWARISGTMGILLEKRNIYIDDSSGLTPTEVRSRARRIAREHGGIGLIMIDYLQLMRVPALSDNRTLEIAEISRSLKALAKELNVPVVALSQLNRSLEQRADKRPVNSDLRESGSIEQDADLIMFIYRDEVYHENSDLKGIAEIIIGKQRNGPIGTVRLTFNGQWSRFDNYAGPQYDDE

Chain of DnaB helicase;DnaC protein (P0ACB0 whole entry, chain 1 of 2): as the sequence (P0ACB0 whole entry) above
Chain of DnaB helicase;DnaC protein (P0AEF0 whole entry, chain 2 of 2): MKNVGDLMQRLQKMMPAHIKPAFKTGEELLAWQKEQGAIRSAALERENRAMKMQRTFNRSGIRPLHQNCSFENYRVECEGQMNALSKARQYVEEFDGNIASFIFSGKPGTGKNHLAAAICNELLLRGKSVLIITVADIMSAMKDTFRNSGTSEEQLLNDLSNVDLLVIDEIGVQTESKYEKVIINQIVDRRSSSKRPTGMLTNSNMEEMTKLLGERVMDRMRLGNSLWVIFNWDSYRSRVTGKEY
Chain of DnaC protein (hexamer assembled on DnaB) in the binary DnaB–DnaC complex (P0AEF0 whole entry): as the sequence (P0AEF0 whole entry, chain 2 of 2) above
Chain of DnaC protein (hexamer assembled on DnaB) in the binary DnaB–DnaC complex (P0ACB0 2-471 partner): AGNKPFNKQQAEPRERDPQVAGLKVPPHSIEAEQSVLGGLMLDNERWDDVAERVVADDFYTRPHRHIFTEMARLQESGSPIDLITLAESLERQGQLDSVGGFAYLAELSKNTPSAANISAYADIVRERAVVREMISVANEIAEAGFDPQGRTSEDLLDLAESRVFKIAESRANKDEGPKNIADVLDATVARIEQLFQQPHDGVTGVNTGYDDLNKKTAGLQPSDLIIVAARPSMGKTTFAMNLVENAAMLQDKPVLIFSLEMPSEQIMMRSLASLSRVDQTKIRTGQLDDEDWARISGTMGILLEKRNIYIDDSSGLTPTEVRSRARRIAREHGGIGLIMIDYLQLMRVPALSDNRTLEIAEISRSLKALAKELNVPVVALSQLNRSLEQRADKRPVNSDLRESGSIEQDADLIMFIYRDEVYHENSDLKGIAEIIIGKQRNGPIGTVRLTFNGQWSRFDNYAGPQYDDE

| Kd [1] [µM] | Molecule | binding result [2] | binding result (DnaB helicase) |
| --- | --- | --- | --- |
| 4.17 | CNc1ccccc1C(=O)O[C@H]1[C@@H](O)[C@H](n2cnc3c(N)ncnc32)O[C@@H]1CO[P@@](=O)(O)O[P@](=O)(O)OP(=O)(O)O [MANT-ATP, 3′-O-(N-methylanthraniloyl)adenosine 5′-triphosphate] | – | – |
| – | AAAAAAAAAAAAAAAAAAAA (ssDNA) [dA(pdA)19 (ssDNA 20-mer)] | binds | binds |
